The target in experiment [1] is prostate specific membrane antigen (PSMA), full-length (human) (UniProt Q04609). Briefly: radiolabelled mAb bound to PSMA-3T3 cells.
The target is the same in experiment [2]. Kind of experiment: radiolabelled mAb bound to PSMA-expressing cells, average.
Experiment [3] has the same target. Briefly: radiolabelled mAb bound to PSMA-3T3 cells (bracket: 3T3 control).
Experiment [4] has the same target. Briefly: cell-based or functional assay.

Consider 2 substances from patent publication US20110165081A1.

prostate specific membrane antigen (PSMA), full-length (human), sequence (Q04609 whole entry): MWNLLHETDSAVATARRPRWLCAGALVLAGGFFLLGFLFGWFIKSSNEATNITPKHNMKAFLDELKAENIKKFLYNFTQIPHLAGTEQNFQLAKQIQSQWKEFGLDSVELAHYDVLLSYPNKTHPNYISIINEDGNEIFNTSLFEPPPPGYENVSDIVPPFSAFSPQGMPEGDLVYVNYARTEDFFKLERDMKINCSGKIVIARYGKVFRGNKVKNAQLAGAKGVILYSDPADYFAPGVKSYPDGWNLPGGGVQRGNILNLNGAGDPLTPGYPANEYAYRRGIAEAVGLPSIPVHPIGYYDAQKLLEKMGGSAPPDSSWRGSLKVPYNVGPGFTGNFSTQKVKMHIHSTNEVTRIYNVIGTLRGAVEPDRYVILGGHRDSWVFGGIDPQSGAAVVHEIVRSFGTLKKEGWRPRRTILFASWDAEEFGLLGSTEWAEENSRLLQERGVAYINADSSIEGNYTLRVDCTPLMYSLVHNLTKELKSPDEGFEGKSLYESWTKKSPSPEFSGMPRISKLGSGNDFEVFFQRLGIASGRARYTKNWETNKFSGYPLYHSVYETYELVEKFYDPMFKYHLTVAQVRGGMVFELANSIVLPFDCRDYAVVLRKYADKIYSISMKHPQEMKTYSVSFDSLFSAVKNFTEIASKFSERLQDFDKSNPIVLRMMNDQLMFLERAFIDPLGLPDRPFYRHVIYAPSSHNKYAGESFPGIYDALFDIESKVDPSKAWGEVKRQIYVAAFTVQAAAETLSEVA

Consider “^111In radiolabeled CHX-A″-DTPA antibody mJ591”, for which the figures for the Immunoreactivity (%) in experiment [1] and in experiment [3] were 58.5% and 54.9%, respectively. This substance also yielded an Immunoreactivity (%), Average in experiment [2] of 56.7%.
Turning to mAb J591 (ATCC #HB-12126) (antibody), in experiment [4], the LD50, immunotoxin cytotoxicity (Mab-Zap saporin secondary) on C4-2 cells is 88.2 pM and the LD50, immunotoxin cytotoxicity (Mab-Zap saporin secondary) on PSMA-3T3 cells was 89 pM.
